# B1: CPEB3 Ribozyme (parent)
# chain: UAACAGGGGGCCACAGCAGAAGCGUUCACGUCGCAGCCCCUGUCAGAUUCUGGUGAAUCUGCGAAUUCUGCUGUAUAUCUC
# Variants of: B1
# Experiment: self-cleavage, relative activity (ratio to wild type); higher = more cleavage; in vitro, sequencing
# Summary of the method: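 Relative activity was defined as the cleaved/total read fraction for a variant divided by the same fraction for the unmutated ribozyme. CPEB3 self-cleaving ribozyme libraries were made by rounds of error-prone PCR, barcoded, and transcribed in vitro with T7 RNA polymerase for 5 hours at 37°C, and cleavage ran through transcription plus a 15 min DNase I step before EDTA. Illumina sequencing of template-switched reverse transcripts gave the reads, and DNA sequencing mapped the barcodes. Averages come from three batches, using variants with at least 5 reads.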
row,Variant,self-cleavage
1,A15G G46U,0.18
2,A15G G52A,0.99
3,A15G G52C,0.88
4,A15G G53A,1.02
5,A15G G53C,1.05
6,A15G G53U,1.02
7,A15G G55A,0.66
8,A15G G55U,0.65
9,A15G G61A,0.34
10,A15G G63A,0.79
11,A15G G63C,0.86
12,A15G G70A,0.29
13,A15G G70C,0.11
14,A15G G70U,0.18
15,A15G G73A,1.19
16,A15G G73C,1.16
17,A15G U25A,0.28
18,A15G U25C,0.28
19,A15G U25G,0.4
20,A15G U26A,0.71
21,A15G U26C,0.41
22,A15G U26G,0.55
23,A15G U31A,0.63
24,A15G U31C,0.36

row,Variant,self-cleavage
1,A15G U41A,0.23
2,A15G U41C,0.74
3,A15G U41G,0.38
4,A15G U43A,1.05
5,A15G U43C,0.47
6,A15G U43G,0.28
7,A15G U48A,0.35
8,A15G U48C,0.46
9,A15G U48G,0.72
10,A15G U49A,0.61
11,A15G U49C,0.28
12,A15G U49G,0.52
13,A15G U51A,0.9
14,A15G U51C,0.74
15,A15G U51G,0.62
16,A15G U54A,0.95
17,A15G U54C,0.87
18,A15G U54G,0.96
19,A15G U58A,0.32
20,A15G U58C,0.44
21,A15G U60A,0.35
22,A15G U60C,0.33
23,A15G U60G,0.34
24,A15G U66A,0.45

row,Variant,self-cleavage
1,A15G U66C,0.37
2,A15G U66G,0.35
3,A15G U67A,0.35
4,A15G U67C,0.24
5,A15G U67G,0.4
6,A15G U69A,0.35
7,A15G U69C,0.3
8,A15G U69G,0.32
9,A15G U72A,0.48
10,A15G U72C,1.16
11,A15G U72G,0.46
12,A15G U74A,1.14
13,A15G U74C,1.21
14,A15G U74G,1.14
15,A15G U76A,0.94
16,A15G U76C,0.89
17,A15G U78A,0.96
18,A15G U78C,0.78
19,A15G U78G,1.06
20,A15G U80A,1.07
21,A15G U80C,1.06
22,A15G U80G,0.86
23,A15U,0.76
24,A15U A18C,0.35

row,Variant,self-cleavage
1,A15U A18G,0.29
2,A15U A18U,0.25
3,A15U A20G,0.41
4,A15U A20U,0.27
5,A15U A21C,0.36
6,A15U A21G,0.35
7,A15U A21U,0.19
8,A15U A28C,0.33
9,A15U A28G,0.22
10,A15U A28U,0.38
11,A15U A35G,1.24
12,A15U A35U,0.51
13,A15U A45C,0.18
14,A15U A45G,0.49
15,A15U A45U,0.33
16,A15U A47C,0.29
17,A15U A47G,0.51
18,A15U A47U,0.34
19,A15U A56G,0.46
20,A15U A56U,0.47
21,A15U A57G,0.66
22,A15U A57U,0.15
23,A15U A64G,0.54
24,A15U A64U,0.37

row,Variant,self-cleavage
1,A15U A65G,0.29
2,A15U A65U,0.37
3,A15U A75G,0.67
4,A15U A75U,0.87
5,A15U A77C,0.41
6,A15U A77G,0.87
7,A15U A77U,0.71
8,A15U C17A,0.6
9,A15U C17G,0.36
10,A15U C17U,0.21
11,A15U C23A,0.18
12,A15U C23U,0.23
13,A15U C27U,0.19
14,A15U C29U,0.5
15,A15U C32A,0.24
16,A15U C32G,0.06
17,A15U C32U,0.4
18,A15U C34A,0.37
19,A15U C34G,0.27
20,A15U C34U,0.29
21,A15U C37U,0.29
22,A15U C38A,0.2
23,A15U C38G,0.25
24,A15U C38U,0.67

row,Variant,self-cleavage
1,A15U C39A,0.24
2,A15U C39U,0.65
3,A15U C40A,0.31
4,A15U C40G,0.18
5,A15U C40U,0.55
6,A15U C44A,0.32
7,A15U C44G,0.31
8,A15U C44U,0.22
9,A15U C50G,0.26
10,A15U C59G,0.1
11,A15U C62A,0.14
12,A15U C62U,0.18
13,A15U C68U,0.26
14,A15U C71U,0.33
15,A15U C79A,1.03
16,A15U C79G,1.08
17,A15U C79U,1.14
18,A15U C81A,0.32
19,A15U C81U,1.14
20,A15U G16A,0.57
21,A15U G16U,0.3
22,A15U G19C,0.17
23,A15U G19U,0.23
24,A15U G22C,0.06

row,Variant,self-cleavage
1,A15U G24C,0.08
2,A15U G30C,0.15
3,A15U G30U,0.15
4,A15U G33A,0.17
5,A15U G33U,0.52
6,A15U G36C,0.13
7,A15U G36U,0.08
8,A15U G42A,0.61
9,A15U G52A,1.05
10,A15U G55A,0.46
11,A15U G55U,0.68
12,A15U G61A,0.37
13,A15U G61C,0.07
14,A15U G63A,0.67
15,A15U G63U,0.93
16,A15U G70A,0.32
17,A15U G70C,0.17
18,A15U G73A,1.24
19,A15U G73U,1.17
20,A15U U25A,0.2
21,A15U U25C,0.25
22,A15U U25G,0.46
23,A15U U26A,0.54
24,A15U U26C,0.25

row,Variant,self-cleavage
1,A15U U26G,0.44
2,A15U U31A,0.45
3,A15U U31C,0.35
4,A15U U31G,0.39
5,A15U U41A,0.17
6,A15U U41C,0.92
7,A15U U41G,0.26
8,A15U U43A,0.88
9,A15U U43C,0.41
10,A15U U43G,0.25
11,A15U U48A,0.17
12,A15U U48C,0.33
13,A15U U48G,0.35
14,A15U U49A,0.64
15,A15U U49C,0.15
16,A15U U49G,0.36
17,A15U U51A,0.82
18,A15U U51C,0.54
19,A15U U51G,0.89
20,A15U U54A,0.8
21,A15U U54C,0.77
22,A15U U54G,0.59
23,A15U U58A,0.16
24,A15U U58C,0.26

row,Variant,self-cleavage
1,A15U U60A,0.32
2,A15U U60C,0.31
3,A15U U66A,0.34
4,A15U U66C,0.23
5,A15U U67A,0.2
6,A15U U67C,0.22
7,A15U U67G,0.11
8,A15U U69A,0.25
9,A15U U69C,0.35
10,A15U U69G,0.34
11,A15U U72A,1.09
12,A15U U72C,0.87
13,A15U U72G,0.91
14,A15U U74A,1.02
15,A15U U74C,0.97
16,A15U U74G,0.97
17,A15U U76A,1.17
18,A15U U76C,0.88
19,A15U U78A,0.48
20,A15U U78C,0.7
21,A15U U80A,1.01
22,A15U U80C,1.03
23,G16A,0.34
24,G16A A20G,0.24

row,Variant,self-cleavage
1,G16A A20U,0.16
2,G16A A21G,0.16
3,G16A A21U,0.2
4,G16A A28G,0.25
5,G16A A28U,0.21
6,G16A A35G,1.02
7,G16A A45C,0.14
8,G16A A45G,0.45
9,G16A A47G,0.5
10,G16A A56G,0.4
11,G16A A56U,0.13
12,G16A A57G,0.27
13,G16A A64G,0.45
14,G16A A64U,0.19
15,G16A A77G,0.54
16,G16A C23A,0.08
17,G16A C27A,0.17
18,G16A C37U,0.24
19,G16A C39A,0.33
20,G16A C39U,0.15
21,G16A C79A,0.81
22,G16A G30A,0.06
23,G16A G30C,0.05
24,G16A G33U,0.18

row,Variant,self-cleavage
1,G16A G73C,0.86
2,G16A U25A,0.36
3,G16A U25C,0.18
4,G16A U26A,0.34
5,G16A U26C,0.13
6,G16A U31A,0.19
7,G16A U31G,0.47
8,G16A U41A,0.1
9,G16A U41C,0.49
10,G16A U41G,0.12
11,G16A U43A,0.74
12,G16A U43C,0.39
13,G16A U49A,0.4
14,G16A U51A,0.57
15,G16A U51C,0.18
16,G16A U54C,0.66
17,G16A U58A,0.12
18,G16A U60C,0.19
19,G16A U67A,0.34
20,G16A U67C,0.11
21,G16A U69A,0.19
22,G16A U69C,0.16
23,G16A U69G,0.2
24,G16A U72A,0.36

row,Variant,self-cleavage
1,G16A U72C,0.79
2,G16A U72G,0.16
3,G16A U74A,1.21
4,G16A U74C,0.77
5,G16A U78A,0.52
6,G16A U78C,0.59
7,G16C,0.35
8,G16C A18U,0.28
9,G16C A20G,0.11
10,G16C A21G,0.32
11,G16C A21U,0.1
12,G16C A28G,0.15
13,G16C A28U,0.24
14,G16C A35G,0.83
15,G16C A45G,0.42
16,G16C A45U,0.13
17,G16C A47G,0.25
18,G16C A56G,0.21
19,G16C A57G,0.57
20,G16C A64U,0.28
21,G16C A77G,0.21
22,G16C C23A,0.5
23,G16C C37U,0.16
24,G16C C50U,0.18

row,Variant,self-cleavage
1,G16C G22C,0.07
2,G16C G24C,0.2
3,G16C G36U,0.17
4,G16C G52U,0.48
5,G16C U25C,0.21
6,G16C U26A,0.3
7,G16C U26C,0.23
8,G16C U31C,0.18
9,G16C U41C,0.42
10,G16C U43C,0.21
11,G16C U48G,0.18
12,G16C U49C,0.08
13,G16C U51A,0.11
14,G16C U51G,0.52
15,G16C U54C,0.46
16,G16C U60A,0.29
17,G16C U60C,0.2
18,G16C U66C,0.16
19,G16C U67C,0.42
20,G16C U72A,0.3
21,G16C U74A,0.38
22,G16C U74C,0.25
23,G16C U76C,0.41
24,G16C U78C,0.22

row,Variant,self-cleavage
1,G16U,0.42
2,G16U A18G,0.29
3,G16U A28G,0.18
4,G16U A28U,0.26
5,G16U A35U,0.23
6,G16U A45G,0.21
7,G16U A45U,0.21
8,G16U A47G,0.32
9,G16U A47U,0.16
10,G16U A56G,0.28
11,G16U A57G,0.26
12,G16U C23U,0.16
13,G16U C32A,0.2
14,G16U C39U,0.46
15,G16U C81U,0.35
16,G16U G24A,0.19
17,G16U G24U,0.11
18,G16U G33A,0.32
19,G16U G33C,0.09
20,G16U G36A,0.37
21,G16U G61A,0.18
22,G16U U25A,0.2

# Reference: the RNAGym collection of RNA variant scans (doi:10.1093/nar/gkz1192)
